In data set [1] the test system is GST-DBL1alpha (PfEMP1 DBL1alpha) (Plasmodium falciparum). Description: competition. The conditions noted are these: 2'-F on all pyrimidines (C and U) [positions count without the 20-nt 5-prime fixed region], 30-fold molar excess unlabelled RNA.
Data set [2] deals with PfEMP1 on FCR3S1.2-infected erythrocytes (Plasmodium falciparum). Description: cell_activity. The conditions noted are these: 2'-F on all pyrimidines (C and U) [positions count without the 20-nt 5-prime fixed region]; rosette rate about 35% of control at 258 nM; 1 mM MgCl2.
Data set [3] concerns DBL1alpha-His (PfEMP1 Duffy binding-like domain 1alpha, strain FCR3S1.2) (Plasmodium falciparum). Description: pulldown. To be noted: 2'-F on all pyrimidines (C and U) [positions count without the 20-nt 5-prime fixed region], 40 nM RNA, 350-400 nM protein, Ni-NTA beads, PBSM, yeast RNA, 37 C, RNA assayed as 90 nt with 2x20 nt flanks.
Another data set concerns the target BSA (UniProt P02769 P02769:25-607). Description: EMSA; 10 ug BSA negative control. The conditions noted are these: label: 32P; complex secondary structure predicted by mfold. On the procedure:
To study RNA/DBL1α^His interaction in solution a number of EMSA experiments were conducted. The protein used for these experiments was freshly eluted from the Ni-NTA beads to avoid long storage and freezing in solution to prevent precipitation of DBL1α^His The RNA was internally labelled with ³²P-ATP and migration after incubation with DBL1α^His or BSA was analysed on 10% native polyacrylamide gel. The upper band (177 nucleotide long RNA) seen in FIG. 4 is an incorrect product of the T7 transcription that is derived from a longer transcription template. This template is a product generated in the previous PCR reaction (binding of PCR primer to en external T7 site in the TOPO-vector). […] Throughout the EMSA experiments conducted, no real band shift was observed (RNA molecule bound to protein with slower migration).
FIG. 5. Mobility shift assay of selected clone e05. ˜30 ng internal ³²P-[αATP] labelled RNA was incubated with ˜300-400 ng DBL1α^His for 10 min. and loaded on 10% TBE-buffered PAA gel (+) together with negative control (−) incubated in the presence of 10 μg BSA.

Chain of BSA (P02769 25-607, one chain of several): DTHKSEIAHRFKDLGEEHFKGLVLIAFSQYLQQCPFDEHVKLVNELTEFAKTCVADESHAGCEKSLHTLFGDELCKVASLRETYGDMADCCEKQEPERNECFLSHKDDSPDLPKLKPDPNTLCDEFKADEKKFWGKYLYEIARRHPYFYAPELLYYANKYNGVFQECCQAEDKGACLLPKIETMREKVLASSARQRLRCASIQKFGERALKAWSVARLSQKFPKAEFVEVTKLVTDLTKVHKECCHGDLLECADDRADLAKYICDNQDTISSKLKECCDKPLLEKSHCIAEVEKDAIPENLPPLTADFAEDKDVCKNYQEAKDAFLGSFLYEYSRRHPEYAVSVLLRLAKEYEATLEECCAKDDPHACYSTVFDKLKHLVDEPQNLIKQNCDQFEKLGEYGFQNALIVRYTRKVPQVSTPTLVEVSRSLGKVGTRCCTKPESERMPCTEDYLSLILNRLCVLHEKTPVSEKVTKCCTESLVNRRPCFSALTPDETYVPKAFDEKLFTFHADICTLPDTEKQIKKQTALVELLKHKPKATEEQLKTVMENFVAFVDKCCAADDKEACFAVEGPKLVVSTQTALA

“GGGAAUUCGAGCUCGGUACCUCAUGUGCCAGUGUUUGAAAAAACGCGUUGAUUGCUGGUGUGGUGAGCUAGUCGUAGCAAGCUCUGCAGUCG”: in data set [1], the binding signal (% decrease of labelled RNA recovery) is 40. This molecule also displayed an activity (nM (complete rosette disruption)) in data set [2] of 387. This molecule also registered a binding signal (% RNA recovery) in data set [3] (clone also listed as SEQ 5/11) of 70.

As for “GGGAAUUCGAGCUCGGUACCCUUCGAACGGCCCUGGUUGUUGGUUUUAAUUCAUUUAUCCGCGUGGUCACGGUCGUAGCAAGCUCUGCAGUCG [e05]”, in data set [1], the binding signal (% decrease of labelled RNA recovery) worked out at 40. The molecule further came in with an activity (nM (complete rosette disruption)) in data set [2] of 387. In data set [3] (clone also listed as SEQ 6/12), this molecule came in with a binding signal (% RNA recovery) of 70.

“GGGAAUUCGAGCUCGGUACCUGCCAACCUUCGAUGCAAGAUAAUACUUUUGAUGGUGUAGUCGUAUUGUUCGUAGCAAGCUCUGCAGUCG [d12]” returned a binding signal (% decrease of labelled RNA recovery) in data set [1] (60% decrease at 45-fold, no decrease with 30-fold e02 or pool 0) of 40. In addition, the activity (nM (complete rosette disruption)) in data set [2] is 387. Also, the binding signal (% RNA recovery) in data set [3] (clone also listed as SEQ 4/10) turned out to be 70.

B1: e05 (ssRNA)
RNA: GGGAAUUCGAGCUCGGUACCCUUCGAACGGCCCUGGUUGUUGGUUUUAAUUCAUUUAUCCGCGUGGUCACGGUCGUAGCAAGCUCUGCAGUCG
modifications: 2'-F on all pyrimidines (C and U) [positions count without the 20-nt 5-prime fixed region]
Consider B1, for which the binding result with BSA is on record as “no binding”.

Source of the values: US20110003886, “SELECTION OF RNA APTAMERS AS ANTI-MALARIA AGENTS” (FORSKARPATENT I SYD AB, published 2011).
